For one molecule, IC50 results are on record in paper PMC2133028.

No end group written: not given here.

For orientation: IC50 means the concentration at which inhibition is half-maximal. A higher IC50 goes with lower potency.

This assay addresses GST-hCASK PDZ fusion protein (residues 489-572) (human). Briefly: pull-down.

B1: COOH-terminal syndecan-2 peptide (APTKEFYA-COOH) (peptide)
peptide: APTKEFYA-OH
In turn, B1 registered a concentration for half-maximal inhibition (IC50) of 40 to 70 µM.
